Test results as given in US20160024487.

Tests used:
[1] = biological target: T1, Lys(Dnp)-ATNATVIPRIVGG-Lys(Abz)
T1 chain: KATNATVIPRIVGGK

[2] = biological target: T2, Lys(Dnp)-ATNATIFPRIVGG-Lys(Abz)
T2 chain: KATNATIFPRIVGGK

[3] = biological target: T3, Lys(Dnp)-ATNATLFPRIVGG-Lys(Abz)
T3 chain: KATNATLFPRIVGGK

[4] = biological target: T4, Lys(Dnp)-ATNATIHPRIVGG-Lys(Abz)
T4 chain: KATNATIHPRIVGGK

[5] = biological target: T5, Lys(Dnp)-ATNATMMPRIVGG-Lys(Abz)
T5 chain: KATNATMMPRIVGGK

[6] = biological target: T6, Lys(Dnp)-ATNATPFPRIVGG-Lys(Abz)
T6 chain: KATNATPFPRIVGGK

[7] = biological target: T7, Lys(Dnp)-ATNATLMPRIVGG-Lys(Abz)
T7 chain: KATNATLMPRIVGGK

[8] = biological target: T8, Lys(Dnp)-ATNATFFPRIVGG-Lys(Abz)
T8 chain: KATNATFFPRIVGGK

[9] = biological target: T9, Lys(Dnp)-ATNATVVPRIVGG-Lys(Abz)
T9 chain: KATNATVVPRIVGGK

[10] = biological target: T10, Lys(Dnp)-ATNATIMPRIVGG-Lys(Abz)
T10 chain: KATNATIMPRIVGGK

[11] = biological target: T11, Lys(Dnp)-ATNATAAPRIVGG-Lys(Abz)
T11 chain: KATNATAAPRIVGGK

[12] = biological target: T12, Lys(Dnp)-ATNATLRPRIVGG-Lys(Abz)
T12 chain: KATNATLRPRIVGGK

[13] = biological target: T13, Lys(Dnp)-ATNATTLPRIVGG-Lys(Abz)
T13 chain: KATNATTLPRIVGGK

[14] = biological target: T14, Lys(Dnp)-ATNATREPRIVGG-Lys(Abz)
T14 chain: KATNATREPRIVGGK

[15] = biological target: T15, Lys(Dnp)-ATNATWMPRIVGG-Lys(Abz)
T15 chain: KATNATWMPRIVGGK

[16] = biological target: T16, Lys(Dnp)-ATNATFLPRIVGG-Lys(Abz)
T16 chain: KATNATFLPRIVGGK

[17] = biological target: T17, Lys(Dnp)-ATNATDLPRIVGG-Lys(Abz)
T17 chain: KATNATDLPRIVGGK

[18] = biological target: T18, Lys(Dnp)-ATNATPLPRIVGG-Lys(Abz)
T18 chain: KATNATPLPRIVGGK

[19] = biological target: T19, Lys(Dnp)-ATNATTRPRIVGG-Lys(Abz)
T19 chain: KATNATTRPRIVGGK

[20] = biological target: T20, Lys(Dnp)-ATNATKTPRIVGG-Lys(Abz)
T20 chain: KATNATKTPRIVGGK

[21] = biological target: T21, Lys(Dnp)-ATNATRMPRIVGG-Lys(Abz)
T21 chain: KATNATRMPRIVGGK

[22] = biological target: T22, Lys(Dnp)-ATNATYLPRIVGG-Lys(Abz)
T22 chain: KATNATYLPRIVGGK

[23] = biological target: T23, Lys(Dnp)-ATNATTDPRIVGG-Lys(Abz)
T23 chain: KATNATTDPRIVGGK

[24] = biological target: T24, Lys(Dnp)-ATNATDQPRIVGG-Lys(Abz)
T24 chain: KATNATDQPRIVGGK

[25] = biological target: T25, Lys(Dnp)-ATNATYNPRIVGG-Lys(Abz)
T25 chain: KATNATYNPRIVGGK

[26] = biological target: T26, Lys(Dnp)-ATNATADPRIVGG-Lys(Abz)
T26 chain: KATNATADPRIVGGK

[27] = biological target: T27, Lys(Dnp)-ATNATTPPRIVGG-Lys(Abz)
T27 chain: KATNATTPPRIVGGK

[28] = biological target: T28, Lys(Dnp)-ATNATVNPRIVGG-Lys(Abz)
T28 chain: KATNATVNPRIVGGK

[29] = biological target: T29, Lys(Dnp)-ATNATRTPRIVGG-Lys(Abz)
T29 chain: KATNATRTPRIVGGK

[30] = biological target: T30, Lys(Dnp)-ATNATPHPRIVGG-Lys(Abz)
T30 chain: KATNATPHPRIVGGK

[31] = biological target: T31, Lys(Dnp)-ATNATRVPRIVGG-Lys(Abz)
T31 chain: KATNATRVPRIVGGK

[32] = biological target: T32, Lys(Dnp)-ATNATVGPRIVGG-Lys(Abz)
T32 chain: KATNATVGPRIVGGK

[33] = biological target: T33, Lys(Dnp)-ATNATDTPRIVGG-Lys(Abz)
T33 chain: KATNATDTPRIVGGK

[34] = biological target: T34, Lys(Dnp)-ATNATHEPRIVGG-Lys(Abz)
T34 chain: KATNATHEPRIVGGK

[35] = biological target: T35, Lys(Dnp)-ATNATNNPRIVGG-Lys(Abz)
T35 chain: KATNATNNPRIVGGK

[36] = biological target: T36, Lys(Dnp)-ATNATKRPRIVGG-Lys(Abz)
T36 chain: KATNATKRPRIVGGK

[37] = biological target: T37, Lys(Dnp)-ATNATNEPRIVGG-Lys(Abz)
T37 chain: KATNATNEPRIVGGK

[38] = biological target: T38, Lys(Dnp)-ATNATHDPRIVGG-Lys(Abz)
T38 chain: KATNATHDPRIVGGK

[39] = biological target: T39, Lys(Dnp)-ATNATAHPRIVGG-Lys(Abz)
T39 chain: KATNATAHPRIVGGK

[40] = biological target: T40, Lys(Dnp)-ATNATYHPRIVGG-Lys(Abz)
T40 chain: KATNATYHPRIVGGK

[41] = biological target: T41, Lys(Dnp)-ATNATQIPRIVGG-Lys(Abz)
T41 chain: KATNATQIPRIVGGK

B1: Human plasma purified Factor Xa (protein)
chain 1: ANSFLEEMKKGHLERECMEETCSYEEAREVFEDSDKTNEFWNKYKDGDQCETSPCQNQGKCKDGLGEYTCTCLEGFEGKNCELFTRKLCSLDNGDCDQFCHEEQNSVVCSCARGYTLADNGKACIPTGPYPCGKQTLER
chain 2: IVGGQECKDGECPWQALLINEENEGFCGGTILSEFYILTAAHCLYQAKRFKVRVGDRNTEQEEGGEAVHEVEVVIKHNRFTKETYDFDIAVLRLKTPITFRMNVAPACLPERDWAESTLMTQKTGIVSGFGRTHEKGRQSTRLKMLEVPYVDRNSCKLSSSFIITQNMFCAGYDTKQEDACQGDSGGPHVTRFKDTYFVTGIVSWGEGCARKGKYGIYTKVTAFLKWIDRSMKTRGLPKAKSHAPEVITSSPLK
Q: For B1, which FXa kcat/KM [1] is on record?
A: 120 M⁻¹ s⁻¹

Q: What about the FXa kcat/KM [2] of the same protein?
A: 130 M⁻¹ s⁻¹

Q: And the FXa kcat/KM [3]?
A: 99 M⁻¹ s⁻¹

Q: What about the FXa kcat/KM [4] of the same protein?
A: 810 M⁻¹ s⁻¹

Q: And the FXa kcat/KM [5]?
A: 1000 M⁻¹ s⁻¹

Q: And the FXa kcat/KM [6]?
A: 69 M⁻¹ s⁻¹

Q: And the FXa kcat/KM [7]?
A: 2700 M⁻¹ s⁻¹

Q: And the FXa kcat/KM [8]?
A: 48 M⁻¹ s⁻¹

Q: And the FXa kcat/KM [9]?
A: 54 M⁻¹ s⁻¹

Q: What about the FXa kcat/KM [10] of the same protein?
A: 2100 M⁻¹ s⁻¹

Q: And the FXa kcat/KM [11]?
A: 45 M⁻¹ s⁻¹

Q: And the FXa kcat/KM [12]?
A: 610 M⁻¹ s⁻¹

B2: Human plasma purified Factor Xa (Molecular Innovations, Inc) (protein)
chain 1: B1 chain 1
chain 2: B1 chain 2
Q: Which results are given for B2?
A: FXa kcat/KM [13]: 140 M⁻¹ s⁻¹; FXa kcat/KM [14]: 2400 M⁻¹ s⁻¹; FXa kcat/KM [15]: 200 M⁻¹ s⁻¹; FXa kcat/KM [16]: 530 M⁻¹ s⁻¹; FXa kcat/KM [17]: 27 M⁻¹ s⁻¹; FXa kcat/KM [18]: 330 M⁻¹ s⁻¹; FXa kcat/KM [19]: 37 M⁻¹ s⁻¹; FXa kcat/KM [20]: 72 M⁻¹ s⁻¹; FXa kcat/KM [21]: 4600 M⁻¹ s⁻¹; FXa kcat/KM [22]: 340 M⁻¹ s⁻¹; FXa kcat/KM [23]: 11 M⁻¹ s⁻¹; FXa kcat/KM [24]: 2.2 M⁻¹ s⁻¹; FXa kcat/KM [25]: 50 M⁻¹ s⁻¹; FXa kcat/KM [26]: 56 M⁻¹ s⁻¹; FXa kcat/KM [27]: 72 M⁻¹ s⁻¹; FXa kcat/KM [28]: 70 M⁻¹ s⁻¹; FXa kcat/KM [29]: 1500 M⁻¹ s⁻¹; FXa kcat/KM [30]: 360 M⁻¹ s⁻¹; FXa kcat/KM [31]: 510 M⁻¹ s⁻¹; FXa kcat/KM [32]: 49 M⁻¹ s⁻¹; FXa kcat/KM [33]: 6.4 M⁻¹ s⁻¹; FXa kcat/KM [34]: 96 M⁻¹ s⁻¹; FXa kcat/KM [35]: 15 M⁻¹ s⁻¹; FXa kcat/KM [36]: 91 M⁻¹ s⁻¹; FXa kcat/KM [37]: 20 M⁻¹ s⁻¹; FXa kcat/KM [38]: 86 M⁻¹ s⁻¹; FXa kcat/KM [39]: 140 M⁻¹ s⁻¹; FXa kcat/KM [40]: 43 M⁻¹ s⁻¹; FXa kcat/KM [41]: 630 M⁻¹ s⁻¹
